Assay [1] concerns the target T1, human IL-1β (human, UniProt P01584 117-269).
T1 construct: also called hIL-1β; rhIL-1 beta
The assay can be described thus: BIAcore kinetic analysis of the dAb.

The target in assay [2] is T1, human IL-1β. The assay is described as follows: cell-based or functional assay.
The target in assay [3] is T1, human IL-1β. The assay can be described thus: cell-based or functional assay. The source holds these as a separate data set.
Assay [4] has as its target T1, human IL-1β. The assay can be described thus: BIAcore kinetic analysis of the dAb. This is another data set of the same source.
Assay [5] deals with T1, human IL-1β. The assay is described as follows: BIAcore kinetic analysis of the dAb. The source holds these as a separate data set.
The target of assay [6] is T1, human IL-1β. The assay can be described thus: BIAcore kinetic analysis of the dAb. This is another data set of the same source. Background: Surface plasmon resonance follows binding to a sensor surface in real time, without labels.
Assay [7] has as its target T1, human IL-1β. The assay can be described thus: BIAcore kinetic analysis of the dAb. This is another data set of the same source.
Assay [8] deals with T1, human IL-1β. The assay can be described thus: BIAcore kinetic analysis of the dAb. The source holds these as a separate data set.
Assay [9] deals with T2, human IL-1α (human, UniProt P01583 113-271).
T2 construct: also called hIL-1α; rhIL-1 alpha
T2 sequence (looked up): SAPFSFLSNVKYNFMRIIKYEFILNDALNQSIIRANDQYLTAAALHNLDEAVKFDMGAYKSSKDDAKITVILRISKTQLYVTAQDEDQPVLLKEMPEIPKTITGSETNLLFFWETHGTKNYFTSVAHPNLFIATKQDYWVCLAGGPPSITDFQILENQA
The assay is described as follows: BIAcore, IL-1α coated chip, dAb flowed over.

Assay [10] has as its target T2, human IL-1α. The assay is described as follows: cell-based or functional assay.
Assay [11] has as its target T2, human IL-1α. The assay is described as follows: BIAcore, purified dAb.
The target of assay [12] is T2, human IL-1α. The assay is described as follows: method not given.
Assay [13] concerns the target T1, human IL-1β. The assay is described as follows: Biacore, IgG captured by goat anti-human IgG Fc; rhIL-1 beta followed by rhIL-1 alpha. Here is the method: (§1) The antibody (1-5 ug/ml) was first captured on a goat anti human IgG FC surface.
Assay [14] deals with T1, human IL-1β. The assay can be described thus: Biacore, IgG captured by goat anti-human IgG Fc.
The target of assay [15] is T2, human IL-1α. The assay can be described thus: Biacore, IgG captured by goat anti-human IgG Fc.
The target of assay [16] is T1, human IL-1β. The assay can be described thus: Biacore, IgG captured by goat anti-human IgG Fc; rhIL-1 alpha 100 nM then rhIL-1 beta 200 nM. How it is done: as §1
Assay [17] concerns the target T2, human IL-1α. Described as above. How it is done:
as §1

The target in assay [18] is T1, human IL-1β. The assay can be described thus: cell-based or functional assay. The source holds these as a separate data set.
Assay [19] deals with T2, human IL-1α. The assay can be described thus: cell-based or functional assay. This is another data set of the same source.
Assay [20] concerns the target T1, human IL-1β. The assay is described as follows: cell-based or functional assay. This is another data set of the same source.
Assay [21] deals with T2, human IL-1α. The assay is described as follows: cell-based or functional assay. This is another data set of the same source.
In assay [22] the target is T2, human IL-1α. The assay is described as follows: BIAcore, purified dAb. The source holds these as a separate data set.
For assay [23], the target named is T2, human IL-1α. The assay is described as follows: cell-based or functional assay. The source holds these as a separate data set.
Assay [24] has as its target T2, human IL-1α. The assay can be described thus: IL-1 Receptor Binding Assay.
The target in assay [25] is T2, human IL-1α. The assay is described as follows: BIAcore kinetic analysis of the dAb.
The target in assay [26] is T2, human IL-1α. The assay can be described thus: cell-based or functional assay. The source holds these as a separate data set.
Assay [27] deals with T2, human IL-1α. The assay can be described thus: cell-based or functional assay. The source holds these as a separate data set.

“And” between values parts separate entries of the source, which are not always exact repeats. Equal values may be shown once. Read-outs that look alike come from different tables or passages of the source. Some results are limits rather than exact numbers.

B1: ABT2-65 (other)
VH: EVQLLESGGGLVQPGGSLRLSCAASGFTFEDYQMGWVRQAPGKGLEWVSSISAMGNRTYYADSVKGRFTISRDDSKNTLYLQMNSLRAEDTAVYYCAKNLVRTQSKMWMFDYWGQGTLVTVSS
notes: dAb, VH, to IL-1β; also called dAb ABT2-65
What is called Kd is the constant that tells how readily two partners part at equilibrium. By koff is commonly meant the first-order rate constant of dissociation. A higher koff goes with fast dissociation. What is called kon is the rate constant with which the complex forms. High values mean fast association, low ones slow association. With B1, in the assay with human IL-1β [1], the dissociation constant Kd worked out at 97 nM, the koff amounted to 0.02 s⁻¹ and the kon was determined as 250000 M⁻¹ s⁻¹. The “MRC5 ND50” value with human IL-1β [2] worked out at 266 nM. Besides, in the assay with human IL-1β [3], the “MRC5 ND10” value was determined as 100 nM and the “MRC5 ND50” value turned out to be 266 nM.

B2: ABT2-108 (other)
VH: EVQLLESGGGLVQPGGSLRLSCAASGFTFAEYTMMWVRQAPGKGLEWVSRIGQDGKNTYYADSVKGRFTISRDNSKNTLYLQMNSLRAEDTAVYYCAKYTGRVGVHHLFDYWGQGTLVTSS
notes: dAb, VH, to IL-1β
In the assay with human IL-1β [4], B2 registered a Kd of 110 nM, a koff of 0.0031 s⁻¹ and a kon of 29000 M⁻¹ s⁻¹. For the same molecule, in the assay with human IL-1β [3], the “MRC5 ND10” value was 150 nM and the “MRC5 ND50” value is 250 nM.

B3: ABT2-13 (other)
VH: EVQLLESGGGLVQPGGSLRLSCAASGFTFRDYVMYWARQAPGKGLEWVSRIDPMGSSTYYADSVKGRFTISRDNSKNTLYLQMNSLRAEDTAVYYCAKPEGNFDYWGQGTLVTVSS
notes: dAb, VH, to IL-1β; also called dAb ABT2-13
Regarding B3, in the assay with human IL-1β [3], the “MRC5 ND10” value was determined as 100 nM and the “MRC5 ND50” value came to 800 nM. In the assay with human IL-1β [5], this molecule had a Kd of 930 nM, a koff of 0.075 s⁻¹ and a kon of 81000 M⁻¹ s⁻¹.

B4: ABT2-46 (other)
VL: DIQMTQSPSSLSASVGDRVTITCRASQSIIEWLSWYQQKPGKAPKLLIYRTSVLQSGVPSRFSGSGSGTDFTLTISSLQPEDFATYYCQQNEFWPFTFGQGTKVEIKR
notes: dAb, Vκ, to IL-1β; also called dAb ABT2-46
In the assay with human IL-1β [6], B4 had a Kd of 2800 nM, a koff of 0.063 s⁻¹ and a kon of 23000 M⁻¹ s⁻¹. Moreover, in the assay with human IL-1β [3], the “MRC5 ND10” value is 70 nM and the “MRC5 ND50” value worked out at 386 nM.

B5: ABT2-76 (other)
VL: DIQMTQSPSSLSASVGDRVTITCRASQSIDRWLAWYQQKPGKAPKLLIYRGSILQSGVPSRFSGSGSGTDFTLTISSLQPEDFATYYCQQVAFWPPTFGQGTKVEIKR
notes: dAb, Vκ, to IL-1β; also called dAb ABT2-76
As for B5, in the assay with human IL-1β [7], binding was characterised by a dissociation constant (Kd) of 1300 nM, the koff turned out to be 0.027 s⁻¹ and the kon came out at 20000 M⁻¹ s⁻¹. In the assay with human IL-1β [3], the “MRC5 ND10” value was 50 nM and the “MRC5 ND50” value amounted to 456 nM.

B6: ABT2-42 (other)
VL: DIQMTQSPSSLSASVGDRVTITCRASQYIEKWLTWYQQKPGKAPTLLIYRGSLLQSGVPSRFSGSGSGTDFTLTISSLQPEDFATYYCQQTEYWPFTFGQGTKVEIKR
notes: dAb, Vκ, to IL-1β; also called dAb ABT2-42
As for B6, in the assay with human IL-1β [8], binding was put at a Kd of 54000 nM, the koff amounted to 0.13 s⁻¹ and the kon is 2500 M⁻¹ s⁻¹. In addition, in the assay with human IL-1β [3], the “MRC5 ND10” value is 100 nM and the “MRC5 ND50” value was 770 nM.

B7: ABT1-95-3 (other)
VL: DIQMTQSPSSLSASVGDRVTITCRASQPIHGNLRWYQQKPGKAPKLLIYSSSYLQSGVPSRFSGSGSGTDFTLTISSLQPEDFATYHCQQGYRWPVTFGQGTKVEIKR
notes: dAb, Vκ, to IL-1α
Take B7: the values for the dissociation constant (Kd) with human IL-1α [9], in the assay with human IL-1α [11] and with human IL-1α [12] were 7 to 12 nM, 5.4 nM and 5 to 10 nM, respectively. Further, the “MRC5 ND50” value with human IL-1α [10] turned out to be 50 nM.

B8: ABT2-108-620x/ABT1-95-A3 hu IgG1/K mut (234; 235) (bispecific antibody, V domains shown)
VH: EVQLLESGGGLVQPGGSLRLSCAASGFTFAEESWMWVRQAPGKGLEWVSRIGQDGKNTYYREDVKGRFTISRDNSKNTLYLQMNSLRAEDTAVYYCAKYTGRIMGHHLFDYWGQGTLVTVSS
VL: DIQMTQSPSSLSASVGDRVTITCRASKPGVRNMRWYQQKPGKAPKLLIYSVSYLEPGVPSRFSGSGSGTDFTLTISSLQPEDFATYHCLQGYRWPPTFGQGTKVEIKR
notes: hu IgG1/K mut (234)
For B8, the values for the stoichiometry with human IL-1β [13], in the assay with human IL-1β [16] and with human IL-1α [17] were 0.98, 0.9 and 2, respectively. The Kd with human IL-1β [14] was 0.446 nM and 0.361 nM; with human IL-1β [14] (mean) it was 0.404 nM; in the assay with human IL-1α [15] it was 0.0887 nM and 0.0835 nM. Besides, the koff is 0.000138 s⁻¹ and 0.000102 s⁻¹ with human IL-1β [14]; 0.00012 s⁻¹ with human IL-1β [14] (mean); 4.25e-05 s⁻¹ and 4.11e-05 s⁻¹ in the assay with human IL-1α [15]. In addition, the kon with human IL-1β [14] is 315000 M⁻¹ s⁻¹ and 283000 M⁻¹ s⁻¹; with human IL-1β [14] (mean) it was 299000 M⁻¹ s⁻¹; with human IL-1α [15] it was 479000 M⁻¹ s⁻¹ and 492000 M⁻¹ s⁻¹. Moreover, the results for the “IC50 (MRC-5 neutralization assay)” value in the assay with human IL-1β [18] and with human IL-1α [19] were 0.00558 nM and under 0.001 nM, respectively. In the assay with human IL-1α [19], the “MRC-5 IL-1a inhibition assay EC50” value amounted to 0.00446 nM. The “IL-1β IC50” value in the assay with human IL-1β [20] turned out to be 0.0073 nM. In the assay with human IL-1α [21], the “IL-1α IC50” value worked out at 0.002 nM.

B9: ABT1-95-15 (other)
VL: DIQMTQSPSSLSASVGDRVTITCRASQPIVRNLRWYQQKPGKAPKLLIYSSSYLEPGVPSRFSGSGSGTDFTLTISSLQPEDFATYHCQQGYRWPVTFGQGTKVEIKR
notes: dAb, Vκ, to IL-1α
In the assay with human IL-1α [22], B9 had a Kd of 0.67 nM. The same molecule registered an ND50 with human IL-1α [23] of 45 pM.

B10: ABT1-95-13 (other)
VL: DIQMTQSPSSLSASVGDRVTITCRASQPIVRNLRWYQQKPGKAPKLLIYSSSYLERGVPSRFSGSGSGTDFTLTISSLQPEDFATYHCQQGYRWPVTFGQGTKVEIKR
notes: dAb, Vκ, to IL-1α
As to B10, in the assay with human IL-1α [10], the “MRC5 ND50” value is 0.11 nM. In the assay with human IL-1α [22], the Kd was determined as 0.95 nM. In addition, the ND50 with human IL-1α [23] is 120 pM.

B11: ABT1-95-8 (other)
VL: DIQMTQSPSSLSASVGDRVTITCRASQPIQGNLRWYQQKPGKAPKLLIYSSSYLERGVPSRFSGSGSGTDFTLTISSLQPEDFATYHCQQGYRWPVTFGQGTKVEIKR
notes: dAb, Vκ, to IL-1α
For orientation: IC50 means the concentration that inhibits the measured activity by half. Take B11: the IC50 in the assay with human IL-1α [24] amounted to 1 nM. Moreover, the “MRC5 ND50” value with human IL-1α [10] is 0.9 nM. Moreover, in the assay with human IL-1α [12], the affinity, expressed as Kd, was 0.9 nM.

B12: ABT1-95-14 (other)
VL: DIQMTQSPSSLSASVGDRVTITCRASQPIVKNLRWYQQKPGKAPKLLIYSSSYLERGVPSRFSGSGSGTDFTLTISSLQPEDFATYHCQQGYRWPVTFGQGTKVEIKR
notes: dAb, Vκ, to IL-1α
For B12, in the assay with human IL-1α [10], the “MRC5 ND50” value was 0.25 nM. In addition, the Kd in the assay with human IL-1α [22] was determined as 1.2 nM. Further, the ND50 with human IL-1α [23] was found to be 250 pM.

B13: ABT1-141 (other)
VL: DIQMTQSPSSLSASVGDRVTITCRASQWIQKQLAWYQQKPGKAPKLLIYSSSYLQSGVPSRFSGSGSGTDFTLTISSLQPEDFATYYCQQHLRVPFTFGQGTKVEIKR
notes: dAb, Vκ, to IL-1α; also called dAb ABT1-141
In the assay with human IL-1α [25], B13 displayed a Kd of 300 nM, a koff of 0.0039 s⁻¹ and a kon of 13000 M⁻¹ s⁻¹. Moreover, the “MRC5 ND50” value with human IL-1α [26] came to 70 nM. For the same molecule, in the assay with human IL-1α [27], the “MRC5 ND10” value amounted to 10 nM and the “MRC5 ND50” value worked out at 70 nM.

Source of the values: patent publication US20090291081A1 (AbbVie / Abbott, published 2009).
